In this experiment the target is USP-AE, segment from A region to E region of Ultraspiracle (USP) of Spodoptera litura, N-terminal His tag, expressed in Escherichia coli (Spodoptera litura). Put plainly: cell-based or functional assay.

From patent publication US20060211043A1 come the findings set out here.

As to “EcR-DF, segment from D region to F region of the molting hormone receptor (EcR) of Spodoptera litura, N-terminal His tag, expressed in Escherichia coli and refolded by gel filtration”, the molar ratio of EcR-DF to USP-AE at which ponasterone A binding saturates (USP-AE titrated onto a fixed amount of EcR-DF) (molar ratio EcR-DF:USP-AE (1:1)) was found to be 1.
